The assay has as its target Alcalase® (Bacillus) (UniProt P00780). As to the kind of experiment: titration of Alcalase with inhibitor, residual activity on synthetic peptide substrates, non-linear regression; 0.1M Tris-HCl pH 8.6, 25 C.

With “Wild-type barley subtilisin inhibitor CI-2”, the dissociation constant (Kd) (as a rule, the equilibrium constant for the complex coming apart) is 0.004 nM.

In turn, CI-2(V57E) came in with an equilibrium dissociation constant (Kd) of 0.1 nM.

For CI-2(M59P), the Kd came out at 5 nM.

Values taken from patent US5674833.
